From patent publication US20170015742A1 (published 2017)
Blank lines part the entries; values can stand above or below the binder they belong to.

How the values were obtained:
[1] = biological target: recombinant human PDGF-BB (human, UniProt P01127 82-190); experiment: cell-based or functional assay
[2] = biological target: T1, recombinant human VEGF165 (human, UniProt P15692 207-395); experiment: competition ELISA: DVD-Ig titrated against biotinylated hVEGF165 binding to coated hVEGFR2-Fc
T1 construct: also called hVEGF165; huVEGF-A165
Experimental: To identify molecules that could block the binding of hVEGF₁₆₅ to the hVEGF-R2 (KDR/Flk-1) receptor, a competition ELISA was performed. […] Plates were then washed four times with wash buffer (TBS, 0.05% Tween-20) and blocked with Superblock blocking buffer (Thermo Scientific, cat#37535). […] The pre-incubated sample/hVEGF₁₆₅ complex was added to the coated plate at 50 μL in duplicate and incubated for 30 minutes at 25° C. with shaking. Following incubation, plates were washed four times with wash buffer. Streptavidin-polyHRP-40 (Fitzgerald cal#65r-s104phrp) was diluted in assay diluent (10% Superblock containing 0.05% surfactamps) and added to plates (50 μL) for 45 minutes at 25° C. with shaking. Plates were washed four times with wash buffer and developed with the addition of Enhanced K-blue TMB substrate (Neogen cat#308177). The reaction was stopped with 2N sulfuric acid (VWR, cat# BDH3500-1) and the absorbance was read at 450 nm-570 nm. A decrease in observed optical density indicates the test molecule is blocking the hVEGF₁₆₅ binding to the hVEGF-R2-Fc. Data was analyzed using Softmax Pro 4.8 software and IC₅₀ values calculated using a sigmoidal dose response (variable slope) fit in GraphPad Prism 5.

Human PDGF-BB [3] = biological target: T2, Human PDGF-BB (human, UniProt P01127 82-190); experiment: SPR (Biacore), antibody captured via anti-human Fc, antigen in solution
T2 construct: Recombinant human PDGF-BB, a homodimer of two B chains; also called hPDGF-BB; huPDGF-BB
Procedure, shortened: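 Antibodies or DVD-Ig molecules (1 μg/ml) were captured on an anti-human Fc CM5 surface, with antigen injected in solution and responses referenced to the capture-only surface. Rate constants came from a global 1:1 Langmuir fit, and KD = koff/kon.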

Human PDGF-BB [4] = biological target: T2, Human PDGF-BB; experiment: SPR (Biacore), antibody captured via anti-human Fc, antigen in solution; footnote *: heterogeneous off-rate
Experimental: For example, approximately 9000 RU of goat anti-human Fc specific polyclonal antibody (Thermo Fisher Scientific Inc., Rockford, Ill.) diluted in 10 mM sodium acetate (pH 4.5) is directly immobilized across a CM5 research grade biosensor chip using a standard amine coupling kit according to manufacturer's instructions and procedures at 25 μg/ml. Unreacted moieties on the biosensor surface were blocked with ethanolamine. For kinetic analysis, rate equations derived from the 1:1 Langmuir binding model were fitted simultaneously to multiple antigen injections (using global fit analysis) with the use of Scrubber 2 (BioLogic Software), Biacore Biaevaluation 4.0.1 software or Biacore T100 Evaluation software. Purified antibodies or DVD-Ig molecules were diluted in running buffer for capture across goat anti-human Fc reaction surfaces. Antibodies or DVD-Ig molecules to be captured as a ligand (1 μg/ml) were injected over reaction matrices at a flow rate of 10 μl/minute. During the assay, all measurements were referenced against the capture surface alone (i.e., with no captured antibody or DVD-Ig molecule). […] The equilibrium dissociation constant KD (M) of the reaction between antibodies and the target antigen was then calculated from the kinetic rate constants by the following formula: KD=Koff/Kₒₙ. Binding was recorded as a function of time and kinetic rate constants were calculated.

[5] = biological target: T3, recombinant human PDGF-BB (human, UniProt P01127 82-190); experiment: cell-based or functional assay; remark: listed apart in the source
T3 sequence (P01127 82-190 limits assumed): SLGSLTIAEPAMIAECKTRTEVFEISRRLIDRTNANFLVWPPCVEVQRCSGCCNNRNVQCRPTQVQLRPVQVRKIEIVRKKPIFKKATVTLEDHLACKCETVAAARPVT

[6] = biological target: T3, recombinant human PDGF-BB; experiment: competition ELISA: blocks biotin-hPDGF-BB binding to coated hPDGF-Rβ-Fc
Experimental: Plates were then washed four times with wash buffer (TBS, 0.05% Tween-20) and blocked with Superblock blocking buffer (Thermo Scientific, cat#37535). During the blocking step, supernatants, antibodies, benchmark compounds or DVD-Ig were diluted in assay diluent (10% Superblock containing 0.05% surfactamps) and an eight point titration of each sample molecule was performed. […] Following incubation, plates were washed four times with wash buffer. Detection reagent Streptavidin-polyHRP-40 (Fitzgerald, cat#65r-s104phrp) was diluted in assay diluent and added to plates (50 μL) for 45 minutes at 25° C. with shaking. Plates were washed four times with wash buffer and developed with the addition of Enhanced K-blue TMB substrate (Neogen, cat#308177). The reaction was stopped with 2N sulfuric acid (VWR, cat# BDH3500-1) and the absorbance was read at 450 nm-570 nm. […] Data was analyzed using Softmax Pro 4.8 software and IC₅₀ values calculated using a sigmoidal dose response (variable slope) fit in GraphPad Prism 5.

[7] = biological target: T1, recombinant human VEGF165; experiment: cell-based or functional assay

T1 sequence (P15692 other isoform, or with tags, fused parts or gaps limits assumed): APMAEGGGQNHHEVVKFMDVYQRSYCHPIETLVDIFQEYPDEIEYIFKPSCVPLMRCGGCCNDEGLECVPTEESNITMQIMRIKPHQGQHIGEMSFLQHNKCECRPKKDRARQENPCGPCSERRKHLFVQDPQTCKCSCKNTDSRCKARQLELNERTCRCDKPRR
T2 sequence (P01127 82-190 limits assumed): as the sequence (P01127 82-190 limits assumed) above

NIH-3T3 hPDGF-BB Potency IC50 [1]: 0.365 nM
IC50 [2]: 0.086 nM
B1: 4G8.3-SL-9E8.4 DVD-Ig (PR-1564012) (bispecific antibody, human IgG1, kappa, L234A L235A)
heavy: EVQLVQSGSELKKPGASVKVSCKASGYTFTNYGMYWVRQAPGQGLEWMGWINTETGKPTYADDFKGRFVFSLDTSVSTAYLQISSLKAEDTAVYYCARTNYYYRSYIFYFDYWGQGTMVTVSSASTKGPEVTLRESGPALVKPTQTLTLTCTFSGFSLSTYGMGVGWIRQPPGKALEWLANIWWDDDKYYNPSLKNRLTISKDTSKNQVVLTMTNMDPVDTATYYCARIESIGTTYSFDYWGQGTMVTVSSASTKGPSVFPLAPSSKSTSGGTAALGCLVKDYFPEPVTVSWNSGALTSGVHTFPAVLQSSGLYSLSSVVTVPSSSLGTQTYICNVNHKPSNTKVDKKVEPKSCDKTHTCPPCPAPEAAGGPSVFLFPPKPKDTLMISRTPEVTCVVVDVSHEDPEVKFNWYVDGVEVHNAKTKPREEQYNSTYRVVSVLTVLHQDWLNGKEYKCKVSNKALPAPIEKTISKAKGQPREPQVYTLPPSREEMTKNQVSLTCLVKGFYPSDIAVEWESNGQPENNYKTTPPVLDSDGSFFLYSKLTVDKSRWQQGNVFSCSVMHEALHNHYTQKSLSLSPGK
light: DTVLTQSPATLSLSPGERATLSCRASESVSTHMHWYQQKPGQAPRLLIYGASNLESGVPARFSGSGSGTDFTLTISSLEPEDFAVYFCQQSWNDPFTFGQGTKLEIKRTVAAPSVFIFPPEFVLTQSPGTLSLSPGERATLSCERSSGDIGDSYVSWYQQKPGQAPRLVIYADDQRPSGIPDRFSGSGSGTDFTLTISRLEPEDFAVYYCQSYDINIDIVFGGGTKVEIKGTVAAPSVFIFPPSDEQLKSGTASVVCLLNNFYPREAKVQWKVDNALQSGNSQESVTEQDSKDSTYSLSSTLTLSKADYEKHKVYACEVTHQGLSSPVTKSFNRGEC
notes: DVD-Ig, outer hBDB-4G8.3 (VEGF), inner hBDI-9E8.4 (PDGF); IgG1 L234A, L235A / kappa

kon (Human PDGF-BB [3]): ≥ 1e+07 M⁻¹ s⁻¹
Kd (Human PDGF-BB [4]): ≤ 0.017 nM
B2: hBDI-9E8.8 (antibody, V domains shown)
VH: EVTLRESGPALVKPTQTLTLTCTFSGFSLSTYGMGVGWIRQPPGKGLEWLANIWWDDDKYYNPSLKNRLTISKDTSKNQAVLTITNMDPVDTATYYCARIESIGTTYSFDYWGQGTMVTVSS
VL: EFVLTQSPGTLSLSPGERATLSCERSSGDIGDSYVSWYQQKPGQAPRLVIYADDQRPSGIPDRFSGSGSGTDFTLTISRLEPEDFAVYYCQSYDINIDIVFGGGTKVEIK
notes: Humanized IgG

kon (Human PDGF-BB [3]): ≥ 1e+07 M⁻¹ s⁻¹
Kd (Human PDGF-BB [4]): ≤ 2.9 nM
B4: hBDI-5H1.7 (antibody, V domains shown)
VH: EVTLKESGPALVKPTQTLTLTCTFSGFSLSTFGMGVGWIRQPPGKALEWLANIWWDDDKYYNPSLKNRLTISKDTSKNQAVLTITNMDPVDTATYYCARISTGISSYYVMDAWGQGTTVTVSS
VL: EIVLTQSPGTLSLSPGERATLSCERSSGDIGDTYVSWYQQKPGQAPRLLIYGNDQRPSGIPDRFSGSGSGTDFTLTISRLEPEDFAVYYCQSYDSDIDIVFGGGTKVEIK
notes: Humanized IgG

kon (Human PDGF-BB [3]): ≥ 1e+07 M⁻¹ s⁻¹
Kd (Human PDGF-BB [4]): ≤ 72 nM
B5: hBDI-5H1.8 (antibody, V domains shown)
VH: EVTLKESGPALVKPTQTLTLTCTFSGFSLSTFGMGVGWIRQPPGKALEWLANIWWDDDKYYNPSLKNRLTISKDTSKNQAVLTITNMDPVDTATYYCARISTGISSYYVMDAWGQGTTVTVSS
VL: EFVLTQSPGTLSLSPGERATLSCERSSGDIGDTYVSWYQQKPGQAPRLVIYGNDQRPSGIPDRFSGSGSGTDFTLTISRLEPEDFAVYYCQSYDSDIDIVFGGGTKVEIK
notes: Humanized IgG

HMVEC-d hVEGF165 Potency IC50 [7]: 0.096 nM
IC50 [2]: 0.126 nM
B7: 4G8.3-GS-9E8.4 DVD-Ig (PR-1564010) (bispecific antibody, human IgG1, kappa, L234A L235A)
heavy: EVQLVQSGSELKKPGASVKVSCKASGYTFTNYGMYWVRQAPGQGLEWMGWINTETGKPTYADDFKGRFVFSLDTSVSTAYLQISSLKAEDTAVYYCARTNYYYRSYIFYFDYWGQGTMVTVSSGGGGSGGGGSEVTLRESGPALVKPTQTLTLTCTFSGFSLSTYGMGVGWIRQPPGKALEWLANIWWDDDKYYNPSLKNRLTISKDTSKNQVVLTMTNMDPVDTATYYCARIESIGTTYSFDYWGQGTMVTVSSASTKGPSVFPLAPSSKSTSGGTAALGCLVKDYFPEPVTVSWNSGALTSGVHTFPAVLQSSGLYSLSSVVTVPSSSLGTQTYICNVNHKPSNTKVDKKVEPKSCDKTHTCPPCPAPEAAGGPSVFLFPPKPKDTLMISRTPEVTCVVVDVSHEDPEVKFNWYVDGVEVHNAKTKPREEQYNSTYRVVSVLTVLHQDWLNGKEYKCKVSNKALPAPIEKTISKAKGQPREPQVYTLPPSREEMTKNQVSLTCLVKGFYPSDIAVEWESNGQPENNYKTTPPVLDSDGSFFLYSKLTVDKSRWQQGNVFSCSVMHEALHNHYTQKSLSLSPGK
light: DTVLTQSPATLSLSPGERATLSCRASESVSTHMHWYQQKPGQAPRLLIYGASNLESGVPARFSGSGSGTDFTLTISSLEPEDFAVYFCQQSWNDPFTFGQGTKLEIKRGGSGGGGSGEFVLTQSPGTLSLSPGERATLSCERSSGDIGDSYVSWYQQKPGQAPRLVIYADDQRPSGIPDRFSGSGSGTDFTLTISRLEPEDFAVYYCQSYDINIDIVFGGGTKVEIKGTVAAPSVFIFPPSDEQLKSGTASVVCLLNNFYPREAKVQWKVDNALQSGNSQESVTEQDSKDSTYSLSSTLTLSKADYEKHKVYACEVTHQGLSSPVTKSFNRGEC
notes: as for B1

Phospho-Tyr751/hPDGF-BB Neutralization [5]: 1.62 nM
huPDGF-BB Neutralization Potency (nM) in NIH-3T3 Cells [5]: > 5 nM
IC50 [6]: 3.23 nM
B8: BDI-6A3-A9 (antibody, IgG2b, V domains shown)
VH: EVQLVESGGGLVQPGRSLKFSCAASGFSFSDSAMAWVRQAPKKGLEWVATIIYDGSGTYYRDSVKGRFTISRDNAKSTLYLQMDSLRSEDTATYYCARLGFNYGNYGYYVMDAWGQGASVTVSS
VL: QFTLTQPKSVSGSLRNTITIPCERSSGDIGDSYVSWYQQHLGRPPINVIFADDQRPSEVSDRFSGSIDSSSNSASLTITNLQMDDEADYFCQSYDSNIDINIVFGGGTKLTVL
notes: Rat hybridoma monoclonal antibody

Continued, binder first:

B3: hBDI-9E8.13 (antibody, V domains shown)
VH: EVTLRESGPALVKPTQTLTLTCTFSGFSLSTYGMGVGWIRQPPGKGLEWLANIWWDDDKYYNPSLKNRLTISKDTSKNQAVLTITNMDPVDTATYYCARIESIGTTYSFDYWGQGTMVTVSS
VL: DFQLTQSPSSLSASVGDRVTITCERSSGDIGDSYVSWYQQKPGKAPKNVIYADDQRPSGVPSRFSGSGSGNSASLTISSLQPEDFATYYCQSYDINIDIVFGQGTKVEIK
notes: Humanized IgG
kon (Human PDGF-BB [3]): ≥ 1e+07 M⁻¹ s⁻¹
Kd (Human PDGF-BB [4]): ≤ 0.1 nM

B6: BDI-1E1-D5 (antibody, IgG2b, V domains shown)
VH: EVKLQQSGDELVRPGASVKMSCKASGYTFTDYVMHWVKQSPGQGLEWIGTIIPLIDTTSYNQKFKGKATLTADKSSNTAYMELSRLTSEDSAVYYCARTSPYYYSSYDVMDAWGQGASVTVSS
VL: NIQLTQSPSLLSASVGDRVTLSCKGSQNINNYLAWYQQKLGEAPKLLIYKTNNLQTGIPSRFSGCGSGTDYTLTISSLHSEDLATYYCYQYDNGYTFGAGTKLELK
notes: as for B8
Phospho-Tyr751/hPDGF-BB Neutralization [5]: 1.06 nM
huPDGF-BB Neutralization Potency (nM) in NIH-3T3 Cells [5]: > 5 nM
IC50 [6]: > 10 nM

B9: 4G8.3-LS-9E8.4 DVD-Ig (PR-1564013) (bispecific antibody, human IgG1, kappa, L234A L235A)
heavy: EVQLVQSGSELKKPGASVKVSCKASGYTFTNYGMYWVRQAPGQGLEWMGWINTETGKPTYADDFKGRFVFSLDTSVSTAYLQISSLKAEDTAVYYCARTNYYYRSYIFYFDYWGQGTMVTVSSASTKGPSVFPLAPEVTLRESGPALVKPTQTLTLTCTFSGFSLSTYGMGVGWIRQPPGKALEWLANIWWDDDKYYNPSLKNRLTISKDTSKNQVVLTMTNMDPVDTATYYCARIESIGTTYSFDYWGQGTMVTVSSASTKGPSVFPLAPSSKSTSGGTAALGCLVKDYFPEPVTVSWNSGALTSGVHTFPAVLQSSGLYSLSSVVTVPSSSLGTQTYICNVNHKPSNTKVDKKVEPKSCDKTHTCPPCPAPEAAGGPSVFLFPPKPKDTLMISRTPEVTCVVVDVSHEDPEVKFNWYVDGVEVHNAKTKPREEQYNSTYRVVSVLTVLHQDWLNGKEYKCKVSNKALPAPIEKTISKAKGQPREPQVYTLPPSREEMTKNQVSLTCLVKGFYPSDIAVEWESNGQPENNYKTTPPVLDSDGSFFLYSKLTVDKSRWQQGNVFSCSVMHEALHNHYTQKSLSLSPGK
light: DTVLTQSPATLSLSPGERATLSCRASESVSTHMHWYQQKPGQAPRLLIYGASNLESGVPARFSGSGSGTDFTLTISSLEPEDFAVYFCQQSWNDPFTFGQGTKLEIKRTVAAPEFVLTQSPGTLSLSPGERATLSCERSSGDIGDSYVSWYQQKPGQAPRLVIYADDQRPSGIPDRFSGSGSGTDFTLTISRLEPEDFAVYYCQSYDINIDIVFGGGTKVEIKGTVAAPSVFIFPPSDEQLKSGTASVVCLLNNFYPREAKVQWKVDNALQSGNSQESVTEQDSKDSTYSLSSTLTLSKADYEKHKVYACEVTHQGLSSPVTKSFNRGEC
notes: as for B1
HMVEC-d hVEGF165 Potency IC50 [7]: 0.06 nM
NIH-3T3 hPDGF-BB Potency IC50 [1]: 0.152 nM
IC50 [2]: 0.092 nM

B10: hBDI-5H1.13 (antibody, V domains shown)
VH: EVTLKESGPALVKPTQTLTLTCTFSGFSLSTFGMGVGWIRQPPGKALEWLANIWWDDDKYYNPSLKNRLTISKDTSKNQAVLTITNMDPVDTATYYCARISTGISSYYVMDAWGQGTTVTVSS
VL: DFQLTQSPSSLSASVGDRVTITCERSSGDIGDTYVSWYQQKPGKAPKNVIYGNDQRPSGVPSRFSGSGSGNSATLTISSLQPEDFATYFCQSYDSDIDIVFGQGTKVEIK
notes: Humanized IgG
kon (Human PDGF-BB [3]): ≥ 1e+07 M⁻¹ s⁻¹
Kd (Human PDGF-BB [4]): ≤ 0.49 nM

B11: BDI-5G2-F9 (antibody, IgG2b, V domains shown)
VH: QVTLKESGPGILQPSQTLSLTCTFSGFSLSTFGMGVGWIRQPSGKGLEWLANIWWDDDKYYNPSLKNRLTISKDTSNSQAFLEITNVDTADTATYYCARISTGISSYYVMDAWGQGASVTVSS
VL: QFTLTQPKSVSGSLRSTITIPCERSSGDIGDTYVSWYQQHLGRPPINVIYGNDQRPSEVSDRFSGSIDSSSNSASLTITNLQMDDEADYFCQSYDSDIDIVFGGGTKLTVL
notes: as for B8
Phospho-Tyr751/hPDGF-BB Neutralization [5]: 0.923 nM
huPDGF-BB Neutralization Potency (nM) in NIH-3T3 Cells [5]: 0.741 nM
IC50 [6]: 1.06 nM
